Measurements: patent publication US12053511B2, “Cystatin C and Cystatin 9 to treat gut inflammation caused by thermal injury” (priority 2016, dated 2024)

Key:
[1] = test system: EC 083:H1 and flagellin; assay: Mouse model of infection and thermal injury, survival; type: in vivo, Balb/c mice; details: i.p. 500 pg rCST9 and/or 50 pg rCSTC; 1000 ng flagellin + 1×10^7 CFU EC 083:H1 i.p.; 30% TBSA burn; observed 10 days
Protocol: Mice were intraperitoneally (i.p.) challenged with 1×10^7 CFU of an intestinal isolate E. coli (EC) and 1000 ng of flagellin then treated i.p. with 500 pg rCST9 and/or 50 pg rCSTC followed by a 30% full-thickness thermal injury (30% TBSA). […] Additional groups of infected, rCST treated and/or thermally injured mice were euthanized at 24 and 48 h post-thermal injury to collect serum and harvest intestinal samples. Cytokines were quantified in the serum and analysis of the gut microbiome.
Female Balb/c mice (n=6 mice/group), weighing 19-21 grams (Jackson Laboratories), were housed in a facility approved by the Association for Assessment and Accreditation for Laboratory Animal Care (AAALAC). Mice were allowed to adjust to their environment for at least seven days prior to the study and given access to food and water throughout the entire study. All animal procedures were approved by University of Texas Medical Branch IACUC and performed humanely with minimal suffering. Briefly, mice were shaved dorsally the morning of experimentation as previously described (8). The mice were given an i.p. challenge of 1000 ng of flagellin and 1×10^7 CFU/mouse of EC 083:H1 and then treated with 500 pg of rCST9 and/or 50 pg of rCSTC. Immediately following treatment, mice were anesthetized with pentobarbital (Nembutal) and subjected to a 30% total body surface area (TBSA) burn injury. […]

[2] = test system: human monocyte-derived macrophage (MDM); assay: Macrophage killing of pathogens; type: cell-based; details: same five pathogens
[3] = test system: Pseudomonas aeruginosa (isolate from burn patient wound); assay: Viability and virulence of pathogenic bacterial strains; type: cell-based; details: 50 pg dose

B1: rCST9: human recombinant cystatin 9, cysteine proteinase inhibitor; purchased from American Research Products, Inc. (protein, UniProt Q5W186 29-159, looked up)
Cystatin-9: WCSEEEMGGNNKIVQDPMFLATVEFALNTFNVQSKEEHAYRLLRVLSSWREDSMDRKWRGKMVFSMNLQLRQTVCRKFEDDIDNCPFQESLELNNVRQGISFPQVHSCGCCMGCGVGTGAADKAIPRDKGK
[1]
  survival: did not improve survival
[2]
  MDM killing of pathogens: induced human monocyte-derived macrophage (MDM) killing
[3]
  viability and virulence: retarded the viability and virulence
